Assay [1] concerns the target T1, human ST2 on human primary cells (human, UniProt Q01638 19-556).
T1 sequence: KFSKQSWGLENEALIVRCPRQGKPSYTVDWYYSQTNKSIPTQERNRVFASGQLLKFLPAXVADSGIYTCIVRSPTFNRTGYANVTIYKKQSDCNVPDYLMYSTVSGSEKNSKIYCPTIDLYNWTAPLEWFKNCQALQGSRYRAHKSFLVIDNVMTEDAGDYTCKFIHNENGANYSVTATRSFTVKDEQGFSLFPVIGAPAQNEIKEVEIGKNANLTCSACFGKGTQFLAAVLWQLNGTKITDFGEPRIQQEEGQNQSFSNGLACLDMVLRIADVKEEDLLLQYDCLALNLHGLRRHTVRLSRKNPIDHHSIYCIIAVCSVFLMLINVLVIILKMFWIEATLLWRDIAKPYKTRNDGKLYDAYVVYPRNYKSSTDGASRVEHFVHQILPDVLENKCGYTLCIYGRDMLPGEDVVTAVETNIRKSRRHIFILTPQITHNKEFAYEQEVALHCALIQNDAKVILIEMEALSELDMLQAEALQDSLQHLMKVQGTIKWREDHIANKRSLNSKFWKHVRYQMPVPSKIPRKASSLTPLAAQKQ
The experiment in a line: cell-based or functional assay.

Assay [2] concerns the target T2, soluble human ST2-FLAG His (human, UniProt Q01638 19-322, limits assumed).
T2 construct: also called human ST2-FH; 6xhistidine tagged human ST2; not shown: FLAG and 6x histidine tags
T2 sequence: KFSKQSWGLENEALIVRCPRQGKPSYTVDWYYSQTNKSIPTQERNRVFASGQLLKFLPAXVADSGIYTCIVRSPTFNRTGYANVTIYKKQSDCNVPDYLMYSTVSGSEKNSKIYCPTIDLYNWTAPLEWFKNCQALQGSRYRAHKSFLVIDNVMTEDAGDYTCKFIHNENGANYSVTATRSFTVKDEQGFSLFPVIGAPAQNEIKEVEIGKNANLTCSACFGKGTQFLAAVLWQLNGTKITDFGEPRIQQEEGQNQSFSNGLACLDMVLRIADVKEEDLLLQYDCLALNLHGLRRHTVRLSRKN
Briefly: AlphaScreen, biotinylated human IL-33 with human ST2-FH, antibody at 12.5 ug/ml. In general terms: Bead proximity is the source of the signal in Alpha formats.

Assay [3] addresses T3, cynomolgus monkey ST2 on cynomolgus CD4+ T cells (cynomolgus monkey, UniProt Q01638 19-556 (human entry)).
T3 chain: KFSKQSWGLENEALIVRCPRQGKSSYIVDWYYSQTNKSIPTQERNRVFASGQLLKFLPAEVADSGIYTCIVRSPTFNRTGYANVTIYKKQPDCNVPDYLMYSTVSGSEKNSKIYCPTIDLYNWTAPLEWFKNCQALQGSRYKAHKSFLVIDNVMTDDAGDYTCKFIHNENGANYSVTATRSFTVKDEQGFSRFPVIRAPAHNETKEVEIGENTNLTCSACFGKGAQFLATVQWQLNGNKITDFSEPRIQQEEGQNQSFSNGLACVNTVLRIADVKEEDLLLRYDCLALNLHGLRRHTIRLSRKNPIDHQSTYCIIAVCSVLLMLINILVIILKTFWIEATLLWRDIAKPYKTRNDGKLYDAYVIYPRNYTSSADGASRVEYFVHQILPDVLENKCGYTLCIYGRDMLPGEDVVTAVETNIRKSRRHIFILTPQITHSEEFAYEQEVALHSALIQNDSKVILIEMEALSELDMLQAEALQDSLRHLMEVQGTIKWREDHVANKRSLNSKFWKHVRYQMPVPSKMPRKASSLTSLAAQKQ
The experiment in a line: cell-based or functional assay.

The target of assay [4] is T1, human ST2 on human primary cells. The experiment in a line: cell-based or functional assay. This is another data set of the same source.
Assay [5] has the same target. The experiment in a line: cell-based or functional assay. This is another data set of the same source.
Assay [6] addresses T4, biotinylated human ST2-Fc (human, UniProt Q01638 19-331, biotinylated).
T4 construct: also called ST2-Fc fusion protein; not shown: human antibody Fc domain
T4 sequence: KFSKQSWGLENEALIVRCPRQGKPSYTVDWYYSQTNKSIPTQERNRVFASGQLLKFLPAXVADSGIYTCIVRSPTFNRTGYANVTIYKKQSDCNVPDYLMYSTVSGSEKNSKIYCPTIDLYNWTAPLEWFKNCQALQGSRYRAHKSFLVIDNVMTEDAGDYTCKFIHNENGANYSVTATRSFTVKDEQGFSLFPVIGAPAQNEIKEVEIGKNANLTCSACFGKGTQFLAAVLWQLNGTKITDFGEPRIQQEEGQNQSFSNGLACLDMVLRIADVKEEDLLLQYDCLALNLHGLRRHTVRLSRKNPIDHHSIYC
The experiment in a line: AlphaScreen, IL-33 mediated association of biotinylated human ST2-Fc with human AcP-FH, antibody at 12.5 ug/ml. On the procedure: In the second assay, antibodies were evaluated for the ability to inhibit the IL-33 mediated association of ST2 with the co-receptor AcP. […] The ST2/AcP AlphaScreen was conducted in 8 ul reactions in a 384 well optiplate (Perkin Elmer). […] After the addition of all assay components the plates were incubated overnight in the dark at room temperature. The next day the plates were read on a 2103 Envision multilable reader (Perkin Elmer) using the same parameters as above for the first assay.

In assay [7] the target is T5, human ST2 (SPR analyte) (human, UniProt Q01638 19-322).
T5 construct: The ST2 reagent injected in SPR; leader is 1-18; also called hu ST2
T5 sequence: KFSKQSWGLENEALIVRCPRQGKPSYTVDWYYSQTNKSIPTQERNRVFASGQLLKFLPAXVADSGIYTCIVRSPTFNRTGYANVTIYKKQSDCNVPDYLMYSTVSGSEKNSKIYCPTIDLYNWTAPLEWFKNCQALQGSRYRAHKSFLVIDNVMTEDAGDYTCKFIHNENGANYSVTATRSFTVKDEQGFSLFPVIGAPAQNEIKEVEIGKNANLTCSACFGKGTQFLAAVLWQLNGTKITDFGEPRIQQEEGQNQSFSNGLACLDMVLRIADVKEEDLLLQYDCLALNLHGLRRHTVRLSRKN
The experiment in a line: SPR Biacore 4000, kd at pH 5.5 against kd at pH 7.4. As to the method: (§1) The association (5 min) rates at pH 7.4 and dissociation (10 min) rates at pH 5.5 and 7.4 were monitored at a flow rate of 30 uL/min. The reference subtracted data was fit to a 1:1 model in Scrubber.

Assay [8] addresses T5, human ST2 (SPR analyte). Briefly: SPR Biacore 4000, association at pH 7.4, dissociation at pH 7.4 (estimated kd). As to the method: as §1
Assay [9] addresses T5, human ST2 (SPR analyte). Briefly: SPR Biacore 3000, captured antibody, ST2 analyte, 25 C. A general note: SPR reads the build-up and loss of mass on a sensor chip optically.
For assay [10], the target named is T6, cynomolgus monkey ST2 (SPR analyte) (cynomolgus monkey, UniProt Q01638 19-322 (human entry)).
T6 construct: The cyno ST2 reagent injected in SPR; leader is 1-18; also called cy ST2
T6 chain: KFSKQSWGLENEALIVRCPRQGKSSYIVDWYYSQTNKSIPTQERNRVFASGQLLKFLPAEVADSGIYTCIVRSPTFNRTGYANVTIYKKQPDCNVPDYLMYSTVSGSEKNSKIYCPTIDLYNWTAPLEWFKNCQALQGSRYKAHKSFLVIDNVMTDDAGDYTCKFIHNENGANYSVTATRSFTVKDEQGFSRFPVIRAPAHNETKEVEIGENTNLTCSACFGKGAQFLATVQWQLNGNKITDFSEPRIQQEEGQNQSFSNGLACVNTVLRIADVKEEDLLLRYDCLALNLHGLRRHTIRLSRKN
The description is as above.

In assay [11] the target is T5, human ST2 (SPR analyte). Briefly: SPR Biacore 4000, association at pH 7.4, dissociation at pH 5.5 (estimated kd). As to the method:
as §1

The target in assay [12] is T5, human ST2 (SPR analyte). Briefly: SPR ProteOn XPR-36, captured antibody, ST2 analyte, 25 C.
The target of assay [13] is T6, cynomolgus monkey ST2 (SPR analyte). The assay is described as above.

B1: Ab2 (antibody, human IgG2, kappa, V domains shown)
VH: EVQLVQSGAEVKKPGESLKISCKGSGYSFTNYWIGWVRQMPGKGLEWMGIIYPGNSDTRFSPSFQGQVTISADKSITTAYLQWSSLKASDTAMYYCARHGTSSDYYGLDVWGQGTTVTVSS
VL: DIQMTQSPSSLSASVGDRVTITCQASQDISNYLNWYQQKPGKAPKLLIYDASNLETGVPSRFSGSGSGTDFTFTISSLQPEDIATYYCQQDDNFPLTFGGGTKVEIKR
notes: fully human anti-ST2 antibody
By koff is commonly meant a measure of how fast the partners let go of each other. The Kd is the concentration at which binding is half-saturated. Broadly, the kon is the rate constant with which the complex forms. Turning to B1, the “IC-50, human eosinophil IL-8 release assay (IL-33 and IL-3 stimulation)” value in [1] stood at 52.8 pM. Further, in assay [2], the “% inhib ST2-IL33 AS 12.5 ug/ml” value turned out to be 99.2%. Besides, in assay [3], the “IC-50, cynomolgus monkey CD4+ T cell IFNγ release assay (IL-33, IL-2 and IL-12p70 stimulation)” value turned out to be 79.5 pM. The “IC50 of inhibition of IL-33-dependent IFN-γ response of human NK cells (IL-33 10 ng/mL plus IL-12)” value in assay [4] is 0.0412 µg/mL. Also, in assay [5], the “IC50 of inhibition of human IL-33-induced IL-5 production from human CD4+ T cells” value was determined as 5.25 nM. Besides, in assay [6], the “% inhib ST2-AcP AS 12.5 ug/ml” value came out at 96.4%. For the same molecule, in assay [7], the “pH 5.5/pH 7.4 koff fold change” value worked out at 8 fold. For the same molecule, the koff in assay [8] was 2.98e-05 s⁻¹; in assay [9], 1.13e-05 s⁻¹; in assay [10] it was 1.16e-05 s⁻¹; in [11], 0.000238 s⁻¹. Moreover, the Kd in [9] was 0.0339 nM; in [10], 0.0322 nM. Further, the on-rate (kon) came out at 333000 M⁻¹ s⁻¹ in assay [9] and 360000 M⁻¹ s⁻¹ in assay [10].

B2: Ab30 (antibody, human IgG2, kappa, V domains shown)
VH: QVQLVESGGGVVQPGRSLRLSCTASGFTFSSHGMHWVRQAPGKGLEWVTIIWFDGNNKYYADSVEGRFTISRDNSKNTLFLQMNSLRAEDTAVYYCAREGAEQGFIDLWGRGTLVTVSS
VL: DIQMTQSPSSLSASVGDRVTITCQASQDISNYLNWYHQKPGKAPKLLIYDASNLETGVPSRFSGSGSGTDFTFTISGLQPEDIATYYCQQHDNLPLTFGGGTKVEIKR
notes: fully human anti-ST2 antibody
With B2, the Kd in assay [12] is 0.0097 nM; in assay [13], 0.0102 nM.

B3: Ab32 (antibody, human IgG2, kappa, V domains shown)
VH: EVQLVESGGGLVQPGGSLRLSCAASGFTFSTFDMHWVRQATGKGLEWVSSIDTEGDTYYSGSVKGRFTISRENARNSLYLQMNSLRAGDTAVYYCTRGEDWSDDDYYYGLDVWGQGTTVTVSS
VL: NIVMTQTPLSLSVTPGQPASISCKSSQSLLHSDGKTYLFWYLQKPGQPPQLLIYGVSNRFSGVPDRFSGSGSGTDFTLKISRVEAEDVGVYYCMQSLQLFTFGPGTKVEIKR
notes: fully human anti-ST2 antibody
As to B3, the values for the Kd in assay [12] and in [13] were 0.0602 nM and 0.0558 nM, respectively.

B4: Ab33 (antibody, human IgG2, kappa, V domains shown)
VH: EVQLVESGGGLVQPGGSLRLSCAASGFTFSTFDMHWVRQVPGKGLEWISSIDTEGDTYYPGSVKGRFTISRENARNSLYLQMNSLRAGDTAVYYCTRGEDWSDDDYYYGLDVWGQGTTVTVSS
VL: NIVMTQTPLSLSVTPGQPASISCKSSQSLLHSDGKTYLFWYLQKPGQPPQLLIYGVSNRFSGVPDRFSGSGSGTDFTLKISRVEAEDVGVYSCMQSLQLFTFGPGTKVDIKR
notes: fully human anti-ST2 antibody
For B4, the Kd in assay [12] turned out to be 0.0844 nM; in assay [13], 0.0776 nM.

The record behind these values is US20140004107A1 (published 2014).
